Data: patent US20240295570A1, “METHOD FOR IDENTIFYING CANDIDATE THERAPEUTICS FOR ALZHEIMER'S DISEASE” (UNIVERSITY OF SOUTH FLORIDA, priority 2023, published 2024)

T1: BIN1 SH3 domain (Homo sapiens, UniProt O00499)
T1 construct: 6x His with TEV cleavage site (N, cleaved yes); made in house; host or cells: E. coli BL21 (DE3), pET28a(+)
T1 sequence (O00499 513-593): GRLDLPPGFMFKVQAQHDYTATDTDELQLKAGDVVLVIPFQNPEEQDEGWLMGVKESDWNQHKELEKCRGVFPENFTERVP

B1: human BIN1 SH3 domain (untagged) (other)
chain: T1 sequence (O00499 513-593)
notes: also called native BIN1 SH3 domain; the peptide

How the values were obtained:
BIN1 SH3 domain = target: T1, BIN1 SH3 domain; assay: Surface plasmon resonance (SPR) binding to immobilised BIN1 SH3 domain; details: triplicate, ligand BIN1 SH3 domain 50 μg/mL, analyte serial dilution 75-0.6 μM, dissociation time 120 seconds, 25° C., running buffer 1×PBS-P+, read-out: dissociation constant (KD)
Procedure: (§1) Next, the inventors determined the dissociation constant (KD) for the peptide and full-length 0N4R WT Tau by surface plasmon resonance (SPR). The experiment was run in triplicate with BIN1 SH3 domain 50 μg/mL as the ligand, and FL 0N4R WT Tau in serial dilution from 75-0.6 μM as the analyte. Flow rate—30 μL/minute, contact time—30 seconds, dissociation time—120 seconds, temperature—25° C., running buffer—1×PBS-P+. A dissociation constant of 1.136 μM was determined.
Then, the dissociation constants for nine compounds identified through the molecular docking analysis were assessed. […] Therefore, compound #5 is a candidate compound for further testing in Alzheimer's disease. Ligand-BIN1 SH3 domain 50 μg/mL. Analyte—compounds 1-2 (serial dilutions from 500-3.12 μM), #4 & 6-9 (250-3.12 μM) and #5 (dilutions from 100-3.12 μM). Flow rate—30 μL/minute, contact time—30 seconds, dissociation time—300 seconds, temperature—25° C., running buffer—1.05×PBS-P+ with 5% DMSO. Solvent correction for 5% DMSO was calculated and mathematically subtracted from each compound analysis.

full-length 0N4R WT Tau [1] = target: T2, full-length 0N4R WT Tau (UniProt P10636-6 2-383, limits assumed); assay: SPR, steady-state affinity fit (replicate 2 of 3); BIN1 SH3 domain as immobilised ligand, FL 0N4R WT Tau as analyte 0.6-75 µM, 25 °C, PBS-P+
T2 construct: mature; also called FL 0N4R WT Tau
Procedure: as §1, with “buffer—1×PBS-P+.” for “buffer—1×PBS-P+. A dissociation constant of 1.136 μM was determined.”

full-length 0N4R WT Tau [2] = target: T2, full-length 0N4R WT Tau; assay: SPR, steady-state affinity fit (replicate 3 of 3); BIN1 SH3 domain as immobilised ligand, FL 0N4R WT Tau as analyte 0.6-75 µM, 25 °C, PBS-P+
Procedure: as §1, with “buffer—1×PBS-P+.” for “buffer—1×PBS-P+. A dissociation constant of 1.136 μM was determined.”

full-length 0N4R WT Tau [3] = target: T2, full-length 0N4R WT Tau; assay: SPR, steady-state affinity fit (replicate 1 of 3); BIN1 SH3 domain as immobilised ligand, FL 0N4R WT Tau as analyte 0.6-75 µM, 25 °C, PBS-P+
Procedure: as §1, with “buffer—1×PBS-P+.” for “buffer—1×PBS-P+. A dissociation constant of 1.136 μM was determined.”

full-length 0N4R WT Tau [4] = target: T2, full-length 0N4R WT Tau; assay: SPR, run in triplicate; BIN1 SH3 domain (50 µg/mL) as immobilised ligand, FL 0N4R WT Tau in serial dilution from 75-0.6 µM as analyte; 25° C., 1×PBS-P+
Procedure: as §1, with “buffer—1×PBS-P+.” for “buffer—1×PBS-P+. A dissociation constant of 1.136 μM was determined.”

T2 sequence (P10636 other isoform, or with tags, fused parts or gaps limits assumed): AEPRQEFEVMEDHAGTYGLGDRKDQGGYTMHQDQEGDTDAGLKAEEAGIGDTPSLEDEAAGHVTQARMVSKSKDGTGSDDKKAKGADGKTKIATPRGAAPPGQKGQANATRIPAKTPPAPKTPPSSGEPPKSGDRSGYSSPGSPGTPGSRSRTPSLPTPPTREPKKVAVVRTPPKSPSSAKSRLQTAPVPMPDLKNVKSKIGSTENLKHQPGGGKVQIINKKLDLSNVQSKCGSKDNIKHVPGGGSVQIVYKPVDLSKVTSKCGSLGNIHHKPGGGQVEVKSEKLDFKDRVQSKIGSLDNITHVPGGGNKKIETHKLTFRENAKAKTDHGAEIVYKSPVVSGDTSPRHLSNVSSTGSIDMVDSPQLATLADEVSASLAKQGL

Molecule | Kd (BIN1 SH3 domain) [µM] | Kd (full-length 0N4R WT Tau [1]) [µM] | Kd (full-length 0N4R WT Tau [2]) [µM] | Kd (full-length 0N4R WT Tau [3]) [µM] | Kd (full-length 0N4R WT Tau [4]) [µM]
FL 0N4R WT Tau: full-length 0N4R wild-type Tau protein used as analyte in SPR | 1.14 |  |  |  | 
B1 |  | 1.3 | 1.08 | 1.03 | 1.14
